From PMC7841527

Assays:
[1] = target: FLAG-tagged HDAC4 p.Glu247Gly variant (human); assay: co-IP; HEK293 cells co-transfected with FLAG-HDAC4 (native or variant) and HA-14-3-3β; ~48 h post-transfection cleared extracts immunoprecipitated with anti-FLAG antibody; western blot with anti-HA; blots quantified with ImageJ relative to HDAC4 and 14-3-3β loading controls
[2] = target: FLAG-tagged HDAC4 p.Thr244Lys variant (human); assay: as above
FLAG-tagged HDAC4 p.Thr244Lys variant (human), sequence (P56524 whole entry T244K): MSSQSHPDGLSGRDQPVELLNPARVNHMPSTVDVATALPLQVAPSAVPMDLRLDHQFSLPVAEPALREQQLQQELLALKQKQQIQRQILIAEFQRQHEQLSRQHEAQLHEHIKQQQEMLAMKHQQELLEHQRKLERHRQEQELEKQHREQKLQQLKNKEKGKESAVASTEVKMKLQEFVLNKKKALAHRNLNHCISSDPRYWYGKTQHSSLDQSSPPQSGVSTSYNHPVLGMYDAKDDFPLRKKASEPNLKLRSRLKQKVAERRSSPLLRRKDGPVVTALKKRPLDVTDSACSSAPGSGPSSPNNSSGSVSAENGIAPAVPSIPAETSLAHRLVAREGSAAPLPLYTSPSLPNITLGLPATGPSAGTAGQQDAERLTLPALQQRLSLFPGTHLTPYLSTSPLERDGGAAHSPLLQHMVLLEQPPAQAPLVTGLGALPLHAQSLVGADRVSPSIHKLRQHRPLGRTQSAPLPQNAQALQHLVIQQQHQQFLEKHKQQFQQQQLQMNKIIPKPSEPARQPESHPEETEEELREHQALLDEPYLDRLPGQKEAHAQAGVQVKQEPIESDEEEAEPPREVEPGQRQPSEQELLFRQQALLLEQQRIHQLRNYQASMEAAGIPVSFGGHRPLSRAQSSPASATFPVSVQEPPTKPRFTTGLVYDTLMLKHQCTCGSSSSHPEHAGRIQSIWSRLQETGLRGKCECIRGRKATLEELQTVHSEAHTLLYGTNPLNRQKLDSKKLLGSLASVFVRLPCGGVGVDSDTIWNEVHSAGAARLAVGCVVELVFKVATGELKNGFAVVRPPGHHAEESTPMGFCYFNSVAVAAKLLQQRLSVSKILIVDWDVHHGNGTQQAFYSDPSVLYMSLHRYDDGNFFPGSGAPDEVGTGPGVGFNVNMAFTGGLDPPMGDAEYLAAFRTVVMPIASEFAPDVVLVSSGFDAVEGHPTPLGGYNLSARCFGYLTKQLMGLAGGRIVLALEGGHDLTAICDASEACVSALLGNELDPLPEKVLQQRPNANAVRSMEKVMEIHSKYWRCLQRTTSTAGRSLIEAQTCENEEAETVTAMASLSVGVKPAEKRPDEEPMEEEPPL

FLAG-tagged HDAC4 p.Glu247Gly variant (human), sequence (P56524 whole entry E247G): as the sequence (P56524 whole entry T244K) above, with K244T, E247G counted along it

“14-3-3β (hemagglutinin [HA]-tagged) (from UniProt P31946 1-246) (natural protein)” showed a fold reduction of binding compared to native HDAC4 [1] of 2 fold and a fold reduction of binding compared to native HDAC4 [2] of 2 fold.
